How the values were obtained:
[1] = target: CD177 (allele 263K431G) on 293 cells (human) (UniProt Q8N6Q3); experiment: bead-rosette formation; hIgG coupled to M-450 Epoxy Dynabeads, mixed with 293 cells at 3.5 beads per cell; beads on cells with two or more beads counted from one hundred random cells
[2] = target: CD177 (allele 263K431G) on 293 cells (human) (UniProt Q8N6Q3)
[3] = target: CD177 (allele 263K431R) on 293 cells (human) (UniProt Q8N6Q3)
Chain of CD177 (allele 263K431R) on 293 cells (human) (Q8N6Q3 22-408): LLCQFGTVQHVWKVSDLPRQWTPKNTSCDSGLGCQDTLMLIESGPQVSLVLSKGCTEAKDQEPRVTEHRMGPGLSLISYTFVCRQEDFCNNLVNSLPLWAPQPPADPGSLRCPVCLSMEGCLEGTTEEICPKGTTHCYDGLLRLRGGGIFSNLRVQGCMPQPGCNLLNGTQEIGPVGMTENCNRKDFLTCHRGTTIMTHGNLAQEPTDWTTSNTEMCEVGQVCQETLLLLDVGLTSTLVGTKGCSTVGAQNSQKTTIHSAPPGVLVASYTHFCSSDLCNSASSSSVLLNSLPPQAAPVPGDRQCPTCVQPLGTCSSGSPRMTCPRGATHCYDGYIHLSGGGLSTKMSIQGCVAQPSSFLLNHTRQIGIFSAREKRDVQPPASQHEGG

Chain of CD177 (allele 263K431G) on 293 cells (human) (Q8N6Q3 22-408): as above

Substance	bound beads per 100 cells (beads per 100 cells) [1]	ADCC (% specific release) of NK-92 cells expressing the CD177-263K431G allele against SKOV-3 cells with trastuzumab 5 μg/ml, E:T 20:1 [2]	ADCC (% specific release) of NK-92 cells expressing the CD177-263K431R allele against SKOV-3 cells with trastuzumab 5 μg/ml, E:T 20:1; failed to mediate ADCC [3]
Human serum IgG (hIgG) (antibody)	123	–	–
Trastuzumab/Herceptin (antibody)	–	8.93%	0.11%
